{"source": "paper PMC10865538", "about": "(2024)", "binders": {"B1": {"name": "sdAb39 (VHH)", "VHH": "EVQLVESGGGLVQPGGSLRLSCAASGNTSTRHPMSWVRQAPGKGLELVASIGRGEITYYADSVKGRFTISRDNSKNTLYLQMNSLRAEDTAVYYCAAFVDFLSRHNSRRPYPHGYWGQGTLVTVSS"}, "B2": {"name": "sdAb42 (VHH)", "VHH": "EVQLVESGGGLVQPGGSLRLSCAASGNTSTRHPMSWVRQAPGKGLELVASIGRGEITYYADSVKGRFTISRDNSKNTLYLQMNSLRAEDTAVYYCAVDAVFGGRHSHWGQGTLVTVSS"}, "B3": {"name": "sdAb38 (VHH)", "VHH": "EVQLVESGGGLVQPGGSLRLSCAASGNTSTRHPMSWVRQAPGKGLELVASIGRGEITYYADSVKGRFTISRDNSKNTLYLQMNSLRAEDTAVYYCAVCLRSVFVNCHNFAYWGQGTLVTVSS"}, "B4": {"name": "sdAb10 (VHH)", "VHH": "EVQLVESGGGLVQPGGSLRLSCAASGNTFPARTMSWVRQAPGKGLELVASIGPGRSTIYADSVKGRFTISRDNSKNTLYLQMNSLRAEDTAVYYCAVAYTSGLALRGSFSYWGQGTLVTVSS"}, "B5": {"name": "sdAb12 (VHH)", "VHH": "EVQLVESGGGLVQPGGSLRLSCAASGNTFPARTMSWVRQAPGKGLELVASIGRGEITYYADSVKGRFTISRDNSKNTLYLQMNSLRAEDTAVYYCAAPAHGSWMSRRPHIYWGQGTLVTVSS"}}, "molecular_target": "SARS-CoV-2 S protein receptor-binding domain (R319-F541) (SARS-CoV-2, UniProt P0DTC2 319-541)", "test": "ELISA", "data": [{"binder": "B1", "values": [{"measurement": "EC50", "result": 4.3, "unit": "nM"}]}, {"binder": "B2", "values": [{"measurement": "EC50", "result": 2, "unit": "nM"}]}, {"binder": "B3", "values": [{"measurement": "EC50", "result": 46.1, "unit": "nM"}]}, {"binder": "B4", "values": [{"measurement": "EC50", "result": 22.2, "unit": "nM"}]}, {"binder": "B5", "values": [{"measurement": "EC50", "result": 60.1, "unit": "nM"}]}]}
